Reference: patent US20090286279

Key:
[1] = target: [Leu^1, Thr^2]-63-desulfo-hirudin (Lepirudin (Refludan)) (UniProt P01050)
[2] = target: sulfo-hirudin ([Leu^1, Thr^2]-hirudin with sulfotyrosine at position 63, expressed in E. coli from pBAD-HirudinTAG) (UniProt P01050)

Substance: human α-thrombin (Diapharma)
- thrombin activity (cleavage of fluorogenic substrate Boc-Asp(OBzl)-Pro-Arg-MCA, fluorescence intensity over time) [1]: Cleavage of the fluorogenic substrate by thrombin, whose activity is inhibited to different degrees by sulfo-hirudin and desulfo-hirudin
- thrombin activity (cleavage of fluorogenic substrate Boc-Asp(OBzl)-Pro-Arg-MCA, fluorescence intensity over time) [2]: Cleavage of the fluorogenic substrate by thrombin, whose activity is inhibited to different degrees by sulfo-hirudin and desulfo-hirudin
